The supplement of paper PMC9170038

Tested on: MS2 coat protein
Test: apparent KD of MS2 coat protein; designed switch direction (-1 OFF switch, 1 ON switch): 1; higher = weaker reporter binding
How it was run: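 Transcription of designed RNA switches on Illumina chips was done by stalled E. coli RNA polymerase. SNAP-549-labelled MS2 coat protein was then titrated in doubling steps from 0.7 or 1.5 nM to 3 µM, with steps of 0.8–1.5 h at the lowest and 10–20 min at the highest concentration. The per-design median over clusters of curve-fitted normalised fluorescence is reported as apparent KD.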

[1] = input ligand: microRNA oligo, concentration not stated
[2] = Eterna round: R95, input ligand: FMN 200 uM
[3] = Eterna round: R95, input ligand: microRNA oligo, concentration not stated
[4] = Eterna round: R95, input ligand: none

Row | Sequence | apparent KD of MS2 coat protein (input ligand: FMN 200 uM) [nM] | apparent KD of MS2 coat protein [1] [nM] | apparent KD of MS2 coat protein (input ligand: none) [nM] | apparent KD of MS2 coat protein [2] [nM] | apparent KD of MS2 coat protein [3] [nM] | apparent KD of MS2 coat protein [4] [nM]
1 | AAACGAAACACGGCCACAUGAGGAUCACCCAUGUCGAGUUCACAGGAUAUACCUACGUCCUCGUGGUAGAAGGGUGAGGCUGUG [Rienat] (Eterna round: R96, puzzle: Same State NG 3) | 750 | 39.5 | 215 | – | – | –
2 | AAAGAAAACGCAGGAUAUCCCGGAAUGGAACCGGGAGAAGGGUGACCGGUACAUGAGGAUCACCCAUGUAGAGCAAAGGCUCAA [Oninqu] (Eterna round: R96, puzzle: Same State NG 1) | 78 | 114 | 124 | – | – | –
3 | AAAGCCCGUGCUAAGGAUAUGCGUACUCCUACAUGAGGAUCACCCAUGUCCCGCCGAAAAGGAAGGCAGAAGGUAGCACGGGCAA [Letiso] (puzzle: Same State 2) | – | – | – | 48.3 | 114 | 126
4 | AAAGUACAUGAGGAUCACCCAUGUCCAAACAAGUAAGGAUAUACGAAAACAAAACAAAAUGUAGAAGGUACAACAA [Same State 1 #2] (puzzle: Same State 1) | – | – | – | 18.1 | 17.9 | 26.4
5 | AAAGUGCCGACGAAGGAUAUAGCGGGUGAGACAUGAGGAUCACCCAUGUAUGCAGAACUCAUCCUCUAGAAGGUUGAGACGGCUA [Bionlateat] (Eterna round: R96, puzzle: Same State 2) | 151 | 31.1 | 95.9 | – | – | –
6 | AACAAUCUAUCUGAGGAUAUCAUGAAAUAAACAUGAGGAUCACCCAUGUGCAGGAAAACUGUAUAUGAGAAGGCAGAUAGAUUGA [salish99_ss2_r3_046] (puzzle: Same State 2) | – | – | – | 14.8 | 69.2 | 101
7 | AACAAUCUAUCUGAGGAUAUCAUGAAAUAAACAUGAGGAUCACCCAUGUGCAGGAAAUCUGCAUAUGAGAAGGCAGAUAGAUUGA [salish99_ss2_r3_043] (Eterna round: R96, puzzle: Same State 2) | – | 672 | – | – | – | –
8 | AACAAUCUAUCUGAGGAUAUCAUGAAAUAAACAUGAGGAUCACCCAUGUGCAGGAAAUCUGCAUAUGAGAAGGCAGAUAGAUUGA [salish99_ss2_r3_043] (puzzle: Same State 2) | – | – | – | 33.9 | 1240 | 4600
9 | AACAUGAGGAUCACCCAUGUAGAAAAGUGAGGCAGCUCAGGGAAGGAUAUGGUUGACACCCUCGACCAGAAGGUCCAAAAUAAA [Argeatonra] (Eterna round: R96, puzzle: Same State NG 3) | 31.2 | 54.2 | 63.6 | – | – | –
10 | AACAUGAGGAUCACCCAUGUCAGGUCGCCAACCUACAUGAGGAAGGAUAUAGCCUCGAAUAUUGGCUAGAAGGUCCUCAUGAAU [Tieson] (Eterna round: R96, puzzle: Same State NG 3) | 320 | 16.4 | 39.9 | – | – | –
11 | AAGAAAGACGCAGGAUAUCAGUGCAAACCGCACUGAGAAGGGUGAGACAUGAGGAUCACCCAUGUAACACGGCAAAACACCGUG [Teinre] (Eterna round: R96, puzzle: Same State NG 1) | 1240 | 49.3 | 191 | – | – | –
12 | AAGAGGUCCGCAGGAUAUACCCGGCCUCGCCGGGUAGAAGGGUGAACCUCAUAACCCACCACACACAUGAGGAUCACCCAUGUA [Enisaon] (Eterna round: R96, puzzle: Same State NG 1) | 494 | 1.93 | 111 | – | – | –
13 | AAGUAACAUGAGGAUCACCCAUGUGAGGUGAGCGUAGGAUAUCGAGGAGGAAGGGUGGAGCGAGAAGGACGAGAGG [JR_SS1_Sub099] (Eterna round: R96, puzzle: Same State 1) | 544 | 281 | 386 | – | – | –
14 | AAGUAACAUGAGGAUCACCCAUGUGAGGUGAGCGUAGGAUAUCGAGGAGGAAGGGUGGAGCGAGAAGGACGAGAGG [JR_SS1_Sub099] (puzzle: Same State 1) | – | – | – | 375 | 189 | 471
15 | AAGUAACAUGAGGAUCACCCAUGUGAGGUGAGCGUAGGAUAUCGAGGAGGUAGGGUAGGUCGAGAAGGACGAGAAG [JR_SS1_Sub095] (puzzle: Same State 1) | – | – | – | 323 | 210 | 700
16 | AAUACAAAUAGUCAGGAUAUCAAAAAUAAGACAUGAGGAUCACCCAUGUAAUAAGUAAAAGUAAAUGAGAAGGGACAGGGUGAAA [JR_SS002_Sub401] (Eterna round: R96, puzzle: Same State 2) | – | 197 | – | – | – | –

Row | Sequence | apparent KD of MS2 coat protein (input ligand: FMN 200 uM) [nM] | apparent KD of MS2 coat protein [1] [nM] | apparent KD of MS2 coat protein (input ligand: none) [nM] | apparent KD of MS2 coat protein [2] [nM] | apparent KD of MS2 coat protein [3] [nM] | apparent KD of MS2 coat protein [4] [nM]
17 | AAUCCUGUCACAGGAUAUCCAAGGUAAACCCUCGGAGAAGGGUGAUAGUCUAACAAACACACACAUGAGGAUCACCCAUGUUAA [Usxeus] (Eterna round: R96, puzzle: Same State NG 1) | 52.4 | 40.1 | 83.6 | – | – | –
18 | AAUUAAGAUCAAGGAUAUCACGUCGAAUAGACGUGAGAAGGUGAUCAUAACAUGAGGAUCACCCAUGUAUUACAUGAAUUAAUU [SSNG1/2-B1] (Eterna round: R96, puzzle: Same State NG 1) | 71.3 | 177 | 289 | – | – | –
19 | AAUUUAAUACAUGAGGAUCACCCAUGUAAAUUAAUUAAGAUCAAGGAUAUCAGCUCGAUUAGAGCUGAGAAGGUGAUCACAUGU [SSNG3/19-A2] (Eterna round: R96, puzzle: Same State NG 3) | – | 307 | – | – | – | –
20 | ACAAGCUUUUCUGCAUUGAAAGGUGGGAUACAUGAGGAUCACCCAUGUUUUUAUGAAAAUAAUGCUCCUCGUCUUAU [JR_SHM208A_Sub092] (puzzle: Sensor for hsa-mir-208a) | – | – | – | 214 | 50.3 | 243
21 | ACAUGAGACUCAGGAUAUGUUGUACCUACAUGUGACAUGAGGAUCACCCAUGUGGUAAGUAUGAUACAGAAGGGAGAGAUAUGU [Equivalance 65 - Jieux - Same State NG 2] (Eterna round: R96, puzzle: Same State NG 2) | 20.5 | 22.1 | 43.6 | – | – | –
22 | ACAUGAGAGAAAGGAUAUGUUGUACCUACAUGUGACAUGAGGAUCACCCAUGUGGUAAGUAUGAGACAGAAGGUUCAGAUAUGU [Equivalence 32 - Jieux - Same State NG 2] (Eterna round: R96, puzzle: Same State NG 2) | 20.4 | 51.1 | 65.7 | – | – | –
23 | ACAUGAGAGUGAGGAUAUGCUGUACCUACAUGUGACAUGAGGAUCACCCAUGUGGUAAGUAUGACGCAGAAGGCACAGAUAUGU [Equivalance 78 - Jieux - Same State NG 2] (Eterna round: R96, puzzle: Same State NG 2) | 13.3 | 78.9 | 103 | – | – | –
24 | ACGUGAGGCGCAGGAUAUACAUGAGGAUCACCCGUAGAAGGGCGCACCCAUAACAUGAGGAUCACCCAUGUUGUCCAUGUCCAU [Same State NG 1 S5] (Eterna round: R96, puzzle: Same State NG 1) | 226 | 158 | 241 | – | – | –
25 | ACUCUCACAGUAGGAUAUGUAGGAUAUGCCUACAUGAGGAUCACCCAUGUAAACAUGGCAGAAGGAUAGAAGGACUUACAUGGG [pwkr ssNG2 2FMN + 1F5.4] (Eterna round: R96, puzzle: Same State NG 2) | 108 | 44.1 | 196 | – | – | –
26 | AGAGGAGGAGCAGGAUAUGCGAAGAAGAAAGAGGUAGAAGGGCUCAUGGGAUGACAUGAGGAUCACCCAUGUACCGCCCGAGGA [AK SSNG1-V2-8.1] (Eterna round: R96, puzzle: Same State NG 1) | 11.5 | 46.4 | 297 | – | – | –
27 | AGAGGAGGAGCAGGAUAUGCGAAGAAGAACGUGGUAGAAGGGCUCAUGCGAUGACAUGAGGAUCACCCAUGUACCUCGCGAGGA [AK SSNG1-V2-9] (Eterna round: R96, puzzle: Same State NG 1) | 414 | 130 | 186 | – | – | –
28 | AGAUCAUGACGAGGAUAUCCGACAUGAGGAUCACCCAUGUAUGUCGGAGGACGGAAACGUCCAAAGGAGAAGGCGUCGUGGUCA [Mat - Same State NG 2 - JL mod - D37] (Eterna round: R96, puzzle: Same State NG 2) | 17.7 | 72.4 | 85.3 | – | – | –
29 | AGAUCAUGACGAGGAUAUGCCACAUGAGGAUCACCCAUGUAUGUGGUAGGACGCGUACGUCCAAAGCAGAAGGCGUCGUGAUCA [Mat - Same State NG 2 - JL mod - D36] (Eterna round: R96, puzzle: Same State NG 2) | 21.5 | 37.6 | 47.9 | – | – | –
30 | AGAUCAUGACGAGGAUAUGCCACAUGAGGAUCACCCAUGUAUGUGGUAGGACGGAAACGUCCAAAGCAGAAGGCGUCGUGGUCA [Mat - Same State NG 2 - JL mod - D35] (Eterna round: R96, puzzle: Same State NG 2) | 23.1 | 44.8 | 41.7 | – | – | –
31 | AGAUCAUGACGAGGAUAUGGUACAUGAGGAUCACCCAUGUAUGUACCACGACGCGUACGUCGAAUCCAGAAGGCGUCAUGAUCA [Mat - Same State NG 2 - JL mod - D18] (Eterna round: R96, puzzle: Same State NG 2) | 21.6 | 92.8 | 150 | – | – | –
